Literature values in article PMC5912896.

Molecular target: Akt PH domain (Homo sapiens) (UniProt P31749)
UniProt P31749, sequence (P31749 2-111): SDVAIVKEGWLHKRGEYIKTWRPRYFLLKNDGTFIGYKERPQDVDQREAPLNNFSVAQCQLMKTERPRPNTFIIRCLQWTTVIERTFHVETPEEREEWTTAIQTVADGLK

Kd: 18 µM
Substance: Akt-in peptide (TCL1 A strand)
